Measurements from publication PMC2587436.

Key:
Test in all cases: SPR
[1] = biological target: GST-APPBP1-UBA3 (Cys216Ala) (human) (UniProt Q13564)
[2] = biological target: GST-APPBP1-UBA3Arg190Gln (Cys216Ala) (human) (UniProt Q13564)
[3] = biological target: GST-APPBP1-UBA3Arg190Ala (Cys216Ala) (human) (UniProt Q13564)

Substance	Kd [1] [µM]	Kd [2] [µM]	Kd [3] [µM]
NEDD8Ala72Lys (from UniProt Q15843 1-76) (natural protein)	> 10	0.886	2.97
NEDD8Ala72Arg (from UniProt Q15843 1-76) (natural protein)	> 10	1.02	1.66
NEDD8Ala72Gln (from UniProt Q15843 1-76) (natural protein)	8.75	> 10	> 10
NEDD8 (from UniProt Q15843 1-76) (natural protein)	0.333	3.46	5.5
